Assay results: paper PMC4554539 (2016)
Read-outs that look alike come from different tables or passages of the source.

Legend:
[1] = target: T1, Na-Cl co-transporter (NCC) (Mus musculus, UniProt P59158); experiment: FITC-IL18 binding to NCC-transfected COS-7 cell membranes, Scatchard analysis
T1 chain: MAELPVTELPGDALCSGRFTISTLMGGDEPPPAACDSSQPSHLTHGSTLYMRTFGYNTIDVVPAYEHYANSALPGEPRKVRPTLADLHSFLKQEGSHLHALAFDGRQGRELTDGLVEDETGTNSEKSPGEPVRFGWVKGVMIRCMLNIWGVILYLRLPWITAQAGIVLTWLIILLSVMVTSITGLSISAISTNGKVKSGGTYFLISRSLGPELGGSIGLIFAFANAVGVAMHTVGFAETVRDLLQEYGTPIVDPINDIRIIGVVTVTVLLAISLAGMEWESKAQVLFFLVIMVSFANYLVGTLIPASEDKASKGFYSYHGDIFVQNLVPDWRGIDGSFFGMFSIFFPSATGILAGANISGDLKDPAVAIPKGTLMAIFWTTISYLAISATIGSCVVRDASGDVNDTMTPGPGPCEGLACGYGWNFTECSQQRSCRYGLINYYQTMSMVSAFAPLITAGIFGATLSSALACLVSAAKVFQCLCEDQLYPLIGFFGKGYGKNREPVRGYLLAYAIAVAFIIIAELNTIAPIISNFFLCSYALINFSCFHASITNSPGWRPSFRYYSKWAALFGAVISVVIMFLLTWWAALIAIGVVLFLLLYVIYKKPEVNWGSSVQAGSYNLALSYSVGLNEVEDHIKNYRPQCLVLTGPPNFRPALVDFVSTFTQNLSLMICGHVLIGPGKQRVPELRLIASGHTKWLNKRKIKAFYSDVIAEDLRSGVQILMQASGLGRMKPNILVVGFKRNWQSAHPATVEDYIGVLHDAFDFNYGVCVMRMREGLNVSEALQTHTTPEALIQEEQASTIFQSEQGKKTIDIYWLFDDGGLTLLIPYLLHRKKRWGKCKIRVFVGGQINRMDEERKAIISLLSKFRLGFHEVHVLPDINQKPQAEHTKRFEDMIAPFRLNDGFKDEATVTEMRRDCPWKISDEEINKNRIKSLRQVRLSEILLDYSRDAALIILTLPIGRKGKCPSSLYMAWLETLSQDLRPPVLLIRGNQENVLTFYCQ

[2] = target: T1, Na-Cl co-transporter (NCC)

B1: IL-18 (protein)
chain: NFGRLHCTTAVIRNINDQVLFVDKRQPVFEDMTDIDQSASEPQTRLIIYMYKDSEVRGLAVTLSVKDSKMSTLSCKNKIISFEEMDPPENIDDIQSDLIFFQKRVPGHNKMEFESSLYEGHFLACQKEDDAFKLILKKKDENGDKSVMFTLTNLHQS
modifications: FITC-conjugated IL18
Work on B1 yielded a Kd [1] of 17.3 nM and a Kd [2] of 21.4 nM.
